Experimental findings from publication PMC3866087, “Heat Shock Transcription Factor σ^32 Co-opts the Signal Recognition Particle to Regulate Protein Homeostasis in E. coli” (PLoS Biology, 2013) are described below.

This assay concerns the target T1, purified SecA (E. coli, UniProt P10408 1-901).
T1 construct: SecA, ATP-fueled motor protein of the Sec translocon of E. coli, purified; source: purified essentially as described [82]
The experiment in a line: far-Western, overlay or dot blot; purified FtsY, Ffh, SecA or Ffh partially digested by Glu-C (V8) resolved on 10% SDS-PAGE, transferred to nitrocellulose, re-natured, incubated with purified WTσ^32, probed with polyclonal anti-σ^32. The note with it: both partners purified.

T1 sequence (P10408 whole entry): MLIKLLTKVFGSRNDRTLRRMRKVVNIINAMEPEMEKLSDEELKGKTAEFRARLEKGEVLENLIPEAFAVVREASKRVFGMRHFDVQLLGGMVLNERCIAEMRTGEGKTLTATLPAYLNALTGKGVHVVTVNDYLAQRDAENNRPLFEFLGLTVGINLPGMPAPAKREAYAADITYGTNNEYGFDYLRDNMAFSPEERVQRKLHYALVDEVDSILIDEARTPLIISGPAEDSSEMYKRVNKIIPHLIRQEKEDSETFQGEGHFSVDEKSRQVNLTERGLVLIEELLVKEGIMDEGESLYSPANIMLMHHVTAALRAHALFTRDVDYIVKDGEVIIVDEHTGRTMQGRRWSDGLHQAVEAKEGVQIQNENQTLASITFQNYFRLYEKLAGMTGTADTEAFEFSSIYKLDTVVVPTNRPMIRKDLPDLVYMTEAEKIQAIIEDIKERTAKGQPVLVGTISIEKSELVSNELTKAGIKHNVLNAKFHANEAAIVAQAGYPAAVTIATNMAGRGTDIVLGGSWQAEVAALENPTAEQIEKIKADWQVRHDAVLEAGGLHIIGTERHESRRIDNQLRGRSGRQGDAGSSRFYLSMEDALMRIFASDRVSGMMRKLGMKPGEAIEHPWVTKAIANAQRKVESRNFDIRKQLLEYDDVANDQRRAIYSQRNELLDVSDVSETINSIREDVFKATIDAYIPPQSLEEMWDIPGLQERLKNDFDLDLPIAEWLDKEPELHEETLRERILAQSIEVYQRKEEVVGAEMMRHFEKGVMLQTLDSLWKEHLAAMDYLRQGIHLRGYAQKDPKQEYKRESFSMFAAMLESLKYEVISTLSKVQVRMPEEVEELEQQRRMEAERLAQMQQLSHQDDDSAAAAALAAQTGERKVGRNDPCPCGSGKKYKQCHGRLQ

B1: purified WTσ^32 (natural protein, E. coli, UniProt P0AGB3 1-284, looked up)
chain: MTDKMQSLALAPVGNLDSYIRAANAWPMLSADEERALAEKLHYHGDLEAAKTLILSHLRFVVHIARNYAGYGLPQADLIQEGNIGLMKAVRRFNPEVGVRLVSFAVHWIKAEIHEYVLRNWRIVKVATTKAQRKLFFNLRKTKQRLGWFNQDEVEMVARELGVTSKDVREMESRMAAQDMTFDLSSDDDSDSQPMAPVLYLQDKSSNFADGIEDDNWEEQAANRLTDAMQGLDERSQDIIRARWLDEDNKSTLQELADRYGVSAERVRQLEKNAMKKLRAAIEA
notes: RNA polymerase sigma factor σ^32 (RpoH) of E. coli, wild type, purified; called full-length in the discussion; The methods list 6×H-tagged, Strep-6×H-tagged and untagged σ^32; also called full-length σ^32; source: purified essentially as described [80]; chaperones removed with a wash of ATP, MgCl2 and two peptides
B1: the binding result is on record as “binds”.
